Measured values: patent publication US20160237160A1 (Bayer, published 2016)

Key:
[1] = molecular target: T1, BAFF-R (TNFRSF13C) Fc fusion protein (Human, UniProt Q96RJ3 1-78); assay: ELISA, Fc fusion protein coated at 1 µg/ml, TPP-2090 at 75 nM, Amplex Red;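 note: binding reported as ELISA signal intensity in Rfu against a panel of TNF receptor superfamily members presented as Fc fusion proteins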
T1 construct: extracellular domain; bought
Description: (§1) Shown is the result of an ELISA: Y is “ELISA signal intensity [Rfu]”; X are “TNF receptor superfamily proteins tested (Fc-fusion proteins)”: 1 is “TWEAKR”; 2 is “TWEAKR”; 3 is “Apo-3”; 4 is “Trail-R1”; 5 is “Trail-R2”; 6 is “CD385”; 7 is “CD95”; 8 is “Rank”; 9 is “TNF-R1”; 10 is “TNF-R2”; 11 is “BAFF-R”; 12 is “DcR3”; 13 is “BCMA”; 14 is “TACI”; 15 is “OX40”; 16 is “CD30”; 17 is “CD27”; 18 is “CD40”; 19 is “Osteoprotegerin”; 20 is “EDAR”; 21 is “GITR”; 22 is “HVEM”; 23 is “NGF R”; 24 is “Trail R3”; 25 is “Lymphotioxin B R”; 26 is “Trail R4”; 27 is “EDA2R”; 28 is “TROY”; 29 is “RELT”; 30 is “4-1BB”.
(§2) To collect dose-response data a serial 3fold dilution of biotinylated IgG starting with a concentration of 2 μM was used as soluble binding partner. Detection was done with anti-hIgG1-HRP and Amplex Red.

[2] = molecular target: T2, Trail R 4 (TNFRSF10D) Fc fusion protein (Human, UniProt Q9UBN6 56-211); assay: as above
T2 construct: extracellular domain; bought
T2 sequence (looked up): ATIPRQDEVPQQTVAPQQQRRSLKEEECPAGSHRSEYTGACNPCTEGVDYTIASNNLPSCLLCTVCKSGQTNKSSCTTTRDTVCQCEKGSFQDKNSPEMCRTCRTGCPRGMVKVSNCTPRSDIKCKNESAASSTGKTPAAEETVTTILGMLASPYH
Description: as §1, §2

[3] = molecular target: T3, TROY (TNFRSF19) Fc fusion protein (Human, UniProt Q9NS68 30-170); assay: as above
T3 construct: extracellular domain; bought
T3 sequence (looked up): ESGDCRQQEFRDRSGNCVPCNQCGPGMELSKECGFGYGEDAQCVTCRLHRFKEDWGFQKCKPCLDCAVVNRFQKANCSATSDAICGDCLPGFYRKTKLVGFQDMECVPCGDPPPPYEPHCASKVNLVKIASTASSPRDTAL
Description: as §1, §2

[4] = molecular target: T4, Trail-R1 (TNFRSF10A) Fc fusion protein (Human, UniProt O00220 24-239); assay: as above
T4 construct: extracellular domain; bought
Description: as §1, §2

[5] = molecular target: T5, Lymphotioxin β R Fc fusion protein (Human, UniProt P36941 31-227); assay: as above
T5 construct: extracellular domain; bought; also called Lymphotioxin B R
Description: as §1, §2

[6] = molecular target: T6, Apo-3 (TNFRSF25) Fc fusion protein (Human, UniProt Q93038 25-199); assay: as above
T6 construct: extracellular domain; bought
T6 sequence (looked up): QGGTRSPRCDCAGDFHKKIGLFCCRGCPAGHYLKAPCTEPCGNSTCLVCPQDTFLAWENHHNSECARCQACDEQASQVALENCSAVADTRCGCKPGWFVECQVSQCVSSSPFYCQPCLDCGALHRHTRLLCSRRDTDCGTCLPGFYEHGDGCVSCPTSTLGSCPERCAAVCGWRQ
Description: as §1, §2

[7] = molecular target: T7, TPP-2616 (TweakR-ECD-34-68-hIgGFc-His-D51A) (human); assay: ELISA, IgG coated 1 ug/ml, HEK293 supernatant titrated
T7 construct: used as HEK293 supernatant
Protocol: (§3) These TWEAKR(34-68)-Fc muteins were expressed in HEK293 cells. To collect dose-response data, IgGs were coated at a concentration of 1 μg/ml in a 384-well Maxisorp ELISA plate and a serial 2fold dilution of the TWEAKR mutein containing supernatant was used as soluble binding partner. Detection was done with anti-HIS-HRP and Amplex Red.

[8] = molecular target: T8, TPP-2625 (TweakR-ECD-34-68-hIgGFc-His-L65A) (human); assay: as above
T8 construct: used as HEK293 supernatant
Protocol: as §3

[9] = molecular target: T9, TPP-2609 (TweakR-ECD-34-68-hIgGFc-His-S40A) (human); assay: as above
T9 construct: used as HEK293 supernatant
Protocol: as §3

[10] = molecular target: T10, TPP-2622 (TweakR-ECD-34-68-hIgGFc-His-S61A) (human); assay: as above
T10 construct: used as HEK293 supernatant
Protocol: as §3

[11] = molecular target: T11, TPP-2617 (TweakR-ECD-34-68-hIgGFc-His-S54A) (human); assay: as above
T11 construct: used as HEK293 supernatant
Protocol: as §3

[12] = molecular target: T12, TPP-2619 (TweakR-ECD-34-68-hIgGFc-His-R58A) (human); assay: as above
T12 construct: used as HEK293 supernatant
Protocol: as §3

[13] = molecular target: T13, TPP-2615 (TweakR-ECD-34-68-hIgGFc-His-K48A) (human); assay: as above
T13 construct: used as HEK293 supernatant
Protocol: as §3

[14] = molecular target: T14, TPP-2624 (TweakR-ECD-34-68-hIgGFc-His-F63A) (human); assay: as above
T14 construct: used as HEK293 supernatant
Protocol: as §3

[15] = molecular target: T15, TPP-2620 (TweakR-ECD-34-68-hIgGFc-His-P59A) (human); assay: as above
T15 construct: used as HEK293 supernatant
Protocol: as §3

[16] = molecular target: T16, TPP-2618 (TweakR-ECD-34-68-hIgGFc-His-R56A) (human); assay: as above
T16 construct: used as HEK293 supernatant
Protocol: as §3

[17] = molecular target: T17, TPP-2607 (TweakR-ECD-34-68-hIgGFc-His-S37A) (human); assay: as above
T17 construct: used as HEK293 supernatant
Protocol: as §3

[18] = molecular target: T18, TPP-2608 (TweakR-ECD-34-68-hIgGFc-His-R38A) (human); assay: as above
T18 construct: used as HEK293 supernatant
Protocol: as §3

[19] = molecular target: T19, TPP-2621 (TweakR-ECD-34-68-hIgGFc-His-H60A) (human); assay: as above
T19 construct: used as HEK293 supernatant
Protocol: as §3

[20] = molecular target: T20, TPP-2613 (TweakR-ECD-34-68-hIgGFc-His-D45A) (human); assay: as above
T20 construct: used as HEK293 supernatant
Protocol: as §3

[21] = molecular target: T21, TPP-2611 (TweakR-ECD-34-68-hIgGFc-His-W42A) (human); assay: as above
T21 construct: used as HEK293 supernatant; also called W42A (34-68 construct)
Protocol: as §3

[22] = molecular target: T22, TPP-2612 (TweakR-ECD-34-68-hIgGFc-His-S43A) (human); assay: as above
T22 construct: used as HEK293 supernatant
Protocol: as §3

[23] = molecular target: T23, TPP-2623 (TweakR-ECD-34-68-hIgGFc-His-D62A) (human); assay: as above
T23 construct: used as HEK293 supernatant
Protocol: as §3

T4 sequence (O00220 24-239): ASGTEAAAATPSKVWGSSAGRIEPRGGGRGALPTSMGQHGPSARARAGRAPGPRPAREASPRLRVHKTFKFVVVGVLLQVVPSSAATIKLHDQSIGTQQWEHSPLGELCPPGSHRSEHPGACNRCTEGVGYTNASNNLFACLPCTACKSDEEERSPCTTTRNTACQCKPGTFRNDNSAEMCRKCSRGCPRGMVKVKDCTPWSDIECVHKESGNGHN
T5 sequence (P36941 31-227): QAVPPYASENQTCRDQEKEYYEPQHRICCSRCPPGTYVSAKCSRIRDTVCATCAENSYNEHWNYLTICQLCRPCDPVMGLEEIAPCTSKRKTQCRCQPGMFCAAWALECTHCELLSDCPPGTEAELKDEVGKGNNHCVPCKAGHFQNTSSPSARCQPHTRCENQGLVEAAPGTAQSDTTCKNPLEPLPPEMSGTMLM

B1: TPP-2090 (antibody, human IgG1, kappa, V domains shown)
VH: EVQLLESGGGLVQPGGSLRLSCAASGFTFSPYPMIWVRQAPGKGLEWVSYISPSGGSTHYADSVKGRFTISRDNSKNTLYLQMNSLRAEDTAVYYCARGGDTYFDYFDYWGQGTLVTVSS
VL: DIQMTQSPSSLSASVGDRVTITCRASQSISGYLNWYQQKPGKAPKLLIYQASSLQSGVPSRFSGSGSGTDFTLTISSLQPEDFATYYCQQSYTSPFITFGQGTKVEIKR
notes: Human IgG1
[1]
  binding result: no binding (tested: 75 nM)
[2]
  binding result: no binding (tested: 75 nM)
[3]
  binding result: no binding (tested: 75 nM)
[4]
  binding result: no binding (tested: 75 nM)
[5]
  binding result: no binding (tested: 75 nM)
[6]
  binding result: no binding (tested: 75 nM)

B2: P4A8(TPP-1324) (antibody, human IgG1, kappa, V domains shown)
VH: QVQLVQSGAEVKKPGASVKVSCKGSGYTFTDYGMHWVRQAPGQGLEWMGVISTYNGYTNYNQKFKGRVTMTVDKSTSTAYMELRSLRSDDTAVYYCARAYYGNLYYAMDYWGQGTLVTVSS
VL: DIVLTQSPASLAVSLGQRATISCRASKSVSTSSYSYMHWYQQKPGQPPKLLIKYASNLESGVPARFSGSGSGTDFSLNIHPMEEDDTAMYFCQHSRELPFTFGGGTKLEIKR
notes: Human IgG1; variable domains from WO2009/140177 with constant region added
[7]
  binding result: no binding
[8]
  binding result: no binding
[9]
  binding result: no binding
[10]
  binding result: no binding
[11]
  binding result: no binding
[12]
  binding result: no binding
[13]
  binding result: no binding
[14]
  binding result: no binding
[15]
  binding result: no binding
[16]
  binding result: no binding
[17]
  binding result: no binding
[18]
  binding result: no binding
[19]
  binding result: no binding
[20]
  binding result: no binding
[21]
  binding result: no binding
[22]
  binding result: no binding
[23]
  binding result: no binding
